Source: patent publication US20090191117A1
Each block holds one substance with its values, some of them ahead of it.

Assays:
[1] = biological target: αvβ3 and αvβ5 integrins on A375S2 human melanoma cells (human) (UniProt P06756); assay: radiolabelled antibody binding to A375S2 cells, n = 2
[2] = biological target: αvβ5 integrin on HT-29 human colon carcinoma cells (human) (UniProt P06756); assay: radiolabelled antibody binding to HT-29 cells, n = 1
[3] = biological target: αVβ3 and αVβ5 integrins on M21 human melanoma cells (human) (UniProt P06756); assay: radiolabelled antibody binding to M21 cells, n = 2
[4] = biological target: αvβ3 and αvβ5 integrins on A375S2 human melanoma cells (human) (UniProt P06756); assay: radiolabelled antibody binding to A375S2 cells, n = 4
[5] = biological target: αvβ3 and αvβ5 integrins on A375S2 human melanoma cells (human) (UniProt P06756); assay: 125-I Fab saturation binding to A375S2 cells, n = 6
[6] = biological target: αVβ3 and αVβ5 integrins on M21 human melanoma cells (human) (UniProt P06756); assay: 125-I Fab saturation binding to M21 cells, n = 7
[7] = biological target: αvβ3 and αvβ5 integrins on A375S2 human melanoma cells (human) (UniProt P06756); assay: cell-based or functional assay
[8] = biological target: αvβ3 and αvβ5 integrins on A375S2 human melanoma cells (human) (UniProt P06756); assay: 125-I antibody saturation binding to A375S2 cells, n = 7
[9] = biological target: αVβ3 and αVβ5 integrins on M21 human melanoma cells (human) (UniProt P06756); assay: 125-I antibody saturation binding to M21 cells, n = 8

Sequence of αvβ3 and αvβ5 integrins on A375S2 human melanoma cells (human) (P06756 31-1048 A375S, chain 1 of 3): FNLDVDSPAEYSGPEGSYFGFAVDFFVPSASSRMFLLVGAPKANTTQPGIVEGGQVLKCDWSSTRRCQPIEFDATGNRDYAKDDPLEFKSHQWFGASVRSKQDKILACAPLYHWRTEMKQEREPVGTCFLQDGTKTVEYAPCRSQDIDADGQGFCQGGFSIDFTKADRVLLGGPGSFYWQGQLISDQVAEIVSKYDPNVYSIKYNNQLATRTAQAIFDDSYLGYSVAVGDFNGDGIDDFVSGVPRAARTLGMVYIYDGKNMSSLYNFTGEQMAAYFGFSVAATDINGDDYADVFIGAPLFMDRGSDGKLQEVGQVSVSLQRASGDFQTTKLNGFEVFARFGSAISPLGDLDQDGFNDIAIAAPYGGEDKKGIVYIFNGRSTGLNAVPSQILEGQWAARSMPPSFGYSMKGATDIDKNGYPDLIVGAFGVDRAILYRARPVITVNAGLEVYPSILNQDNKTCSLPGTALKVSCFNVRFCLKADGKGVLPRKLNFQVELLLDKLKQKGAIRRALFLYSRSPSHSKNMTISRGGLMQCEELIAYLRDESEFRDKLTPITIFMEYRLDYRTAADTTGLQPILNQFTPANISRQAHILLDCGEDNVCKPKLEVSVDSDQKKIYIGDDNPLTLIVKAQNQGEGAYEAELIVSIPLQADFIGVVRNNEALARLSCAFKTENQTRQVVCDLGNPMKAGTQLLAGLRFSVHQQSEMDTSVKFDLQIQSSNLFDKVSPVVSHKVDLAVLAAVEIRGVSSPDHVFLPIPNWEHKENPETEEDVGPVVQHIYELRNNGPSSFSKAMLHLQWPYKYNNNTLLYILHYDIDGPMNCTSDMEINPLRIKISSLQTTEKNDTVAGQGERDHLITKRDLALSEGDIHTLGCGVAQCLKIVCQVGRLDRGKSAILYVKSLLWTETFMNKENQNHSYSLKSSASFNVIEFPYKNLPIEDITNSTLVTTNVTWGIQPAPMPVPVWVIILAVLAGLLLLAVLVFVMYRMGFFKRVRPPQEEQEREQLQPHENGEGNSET
Sequence of αvβ3 and αvβ5 integrins on A375S2 human melanoma cells (human) (P05106 27-788, chain 2 of 3, further chain): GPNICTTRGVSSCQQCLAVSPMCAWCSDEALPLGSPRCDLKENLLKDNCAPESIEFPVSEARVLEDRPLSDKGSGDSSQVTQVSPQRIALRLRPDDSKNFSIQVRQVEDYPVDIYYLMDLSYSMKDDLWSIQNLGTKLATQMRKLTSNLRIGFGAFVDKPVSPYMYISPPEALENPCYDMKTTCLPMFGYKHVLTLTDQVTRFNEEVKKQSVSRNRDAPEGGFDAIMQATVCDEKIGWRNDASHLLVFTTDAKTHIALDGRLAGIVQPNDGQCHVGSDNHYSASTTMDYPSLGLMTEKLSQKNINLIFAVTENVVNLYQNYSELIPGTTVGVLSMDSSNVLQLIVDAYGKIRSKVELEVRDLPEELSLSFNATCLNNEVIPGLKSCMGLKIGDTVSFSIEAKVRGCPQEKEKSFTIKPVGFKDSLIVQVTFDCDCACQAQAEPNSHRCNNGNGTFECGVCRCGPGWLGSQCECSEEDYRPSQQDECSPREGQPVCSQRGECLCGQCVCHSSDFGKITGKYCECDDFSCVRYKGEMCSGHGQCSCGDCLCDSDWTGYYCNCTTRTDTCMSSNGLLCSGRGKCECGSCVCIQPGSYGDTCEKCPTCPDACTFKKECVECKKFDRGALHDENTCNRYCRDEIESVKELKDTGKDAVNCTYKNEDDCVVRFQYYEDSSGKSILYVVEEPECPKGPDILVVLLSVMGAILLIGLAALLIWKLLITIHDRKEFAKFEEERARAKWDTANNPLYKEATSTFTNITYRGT
Sequence of αvβ3 and αvβ5 integrins on A375S2 human melanoma cells (human) (P18084 24-799, chain 3 of 3, further chain): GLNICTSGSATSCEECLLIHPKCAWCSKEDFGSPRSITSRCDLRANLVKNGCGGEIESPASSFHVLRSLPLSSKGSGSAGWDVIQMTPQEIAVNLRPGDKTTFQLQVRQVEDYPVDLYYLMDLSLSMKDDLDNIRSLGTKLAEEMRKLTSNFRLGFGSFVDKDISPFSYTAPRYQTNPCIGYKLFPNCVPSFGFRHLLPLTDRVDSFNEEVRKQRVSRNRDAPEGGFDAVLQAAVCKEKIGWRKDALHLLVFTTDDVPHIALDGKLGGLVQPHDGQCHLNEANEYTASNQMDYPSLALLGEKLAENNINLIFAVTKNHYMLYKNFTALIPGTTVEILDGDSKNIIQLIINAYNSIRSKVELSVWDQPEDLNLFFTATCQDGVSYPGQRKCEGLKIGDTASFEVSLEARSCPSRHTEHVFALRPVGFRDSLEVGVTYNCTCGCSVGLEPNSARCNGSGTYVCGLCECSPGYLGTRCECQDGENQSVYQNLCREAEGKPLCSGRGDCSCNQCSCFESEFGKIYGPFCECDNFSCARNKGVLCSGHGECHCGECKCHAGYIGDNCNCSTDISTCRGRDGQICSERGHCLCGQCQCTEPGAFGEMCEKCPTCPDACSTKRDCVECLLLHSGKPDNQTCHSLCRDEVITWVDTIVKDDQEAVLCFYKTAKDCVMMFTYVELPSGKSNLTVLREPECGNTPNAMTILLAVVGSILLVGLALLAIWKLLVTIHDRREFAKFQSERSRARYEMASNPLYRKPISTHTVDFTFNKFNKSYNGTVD
Sequence of αvβ5 integrin on HT-29 human colon carcinoma cells (human) (P06756 31-1048, chain 1 of 2): as the sequence (P06756 31-1048 A375S, chain 1 of 3) above, with S345A counted along it
Sequence of αvβ5 integrin on HT-29 human colon carcinoma cells (human) (P18084 24-799, chain 2 of 2, further chain): as the sequence (P18084 24-799, chain 3 of 3, further chain) above

Receptors per cell (receptors per cell) [1]: 300000
Substance: LM609 (antibody)

Receptors per cell (receptors per cell) [2]: 73000
Receptors per cell (receptors per cell) [3]: 44000
Receptors per cell (receptors per cell) [4]: 70000
Substance: P1F6 (antibody)

Receptors per cell (receptors per cell) [5]: 370000
Receptors per cell (receptors per cell) [6]: 660000
Substance: ReoPro (c7E3 Fab)

A375S.2 cell adhesion to fibrin, percent of adhesion without antibody, antibody at 10 µg/ml [7]: 43.3%
A375S.2 cell adhesion to fibrinogen, percent of adhesion without antibody, antibody at 10 µg/ml [7]: 11.4%
A375S.2 cell adhesion to gelatin, percent of adhesion without antibody, antibody at 10 µg/ml [7]: 23.2%
A375S.2 cell adhesion to vitronectin, percent of adhesion without antibody, antibody at 10 µg/ml [7]: 1.4%
Receptors per cell (receptors per cell) [8]: 120000
Receptors per cell (receptors per cell) [9]: 200000
Substance: CNTO 95 (antibody)
